Source: patent publication US20250066745A1, “MUTANTS AND USE THEREOF” (BGI SHENZHEN, priority 2021, published 2025)

Assays:
Type in all cases: biochemical
Parameters in all cases: key to Activity of mutant relative to wild-type Gaussia luciferase without the signal peptide: ratio of mutant luminescence intensity to wild-type Gaussia luciferase
[1] = Luminescence activity assay of purified Gaussia luciferase mutants on coelenterazine; conditions: Substrate CTZ (Table 16)
In short: (§1)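 Readout: luminescence intensity, as ratio to signal-peptide-free wild-type enzyme. Enzyme 1 μg/mL, substrate 100 μM stock, 10 μL + 90 μL; buffer 50 mM Tris-HCl pH 8.0, 100 mM NaCl, 0.1% Tween-20.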

[2] = Luminescence activity assay of purified Gaussia luciferase mutants on fluoro-coelenterazine; conditions: Substrate f-CTZ (Table 16)
In short: as §1

[3] = Luminescence activity assay of purified Gaussia luciferase mutants on coelenterazine derivative ZS2; conditions: Substrate ZS2 (Table 16)
In short: as §1

Molecule | Activity of mutant relative to wild-type Gaussia luciferase without the signal peptide [1] | Activity of mutant relative to wild-type Gaussia luciferase without the signal peptide [2] | Activity of mutant relative to wild-type Gaussia luciferase without the signal peptide [3]
P84A E102A S103I D123L V138D: Gaussia luciferase mutant (protein, SIGNAL (1)..(17), Gaussia luciferase mutant) MGVKVLFALICIAVAEAKPTENNEDFNIVAVASNFATTDLDADRGKLPGKKLPLEVLKEMEANARKAGCTRGCLICLSHIKCTAKMKKFIPGRCHTYEGDKAIAQGGIGEAIVDIPEIPGFKLLEPMEQFIAQVDLCDDCTTGCLKGLANVQCSDLLKKWLPQRCATFASKIQGQVDKIKGAGGD | 0.473 | 0.991 | 0.825
P84K E102A: Gaussia luciferase mutant (protein, SIGNAL (1)..(17), Gaussia luciferase mutant) MGVKVLFALICIAVAEAKPTENNEDFNIVAVASNFATTDLDADRGKLPGKKLPLEVLKEMEANARKAGCTRGCLICLSHIKCTKKMKKFIPGRCHTYEGDKASAQGGIGEAIVDIPEIPGFKDLEPMEQFIAQVDLCVDCTTGCLKGLANVQCSDLLKKWLPQRCATFASKIQGQVDKIKGAGGD | 0.000 | 0.009 | 0.001
Q152H S170D G174S K178T A182L: Gaussia luciferase mutant (protein, SIGNAL (1)..(17), Gaussia luciferase mutant) MGVKVLFALICIAVAEAKPTENNEDFNIVAVASNFATTDLDADRGKLPGKKLPLEVLKEMEANARKAGCTRGCLICLSHIKCTPKMKKFIPGRCHTYEGDKESAQGGIGEAIVDIPEIPGFKDLEPMEQFIAQVDLCVDCTTGCLKGLANVHCSDLLKKWLPQRCATFADKIQSQVDTIKGLGGD | 4.938 | 2.069 | 2.672
P84A E102A S103I E110P D123N: Gaussia luciferase mutant (protein, SIGNAL (1)..(17), Gaussia luciferase mutant) MGVKVLFALICIAVAEAKPTENNEDFNIVAVASNFATTDLDADRGKLPGKKLPLEVLKEMEANARKAGCTRGCLICLSHIKCTAKMKKFIPGRCHTYEGDKAIAQGGIGPAIVDIPEIPGFKNLEPMEQFIAQVDLCVDCTTGCLKGLANVQCSDLLKKWLPQRCATFASKIQGQVDKIKGAGGD | 1.343 | 1.802 | 1.409
Q152H S170D Q175E A182Y: Gaussia luciferase mutant (protein, SIGNAL (1)..(17), Gaussia luciferase mutant) MGVKVLFALICIAVAEAKPTENNEDFNIVAVASNFATTDLDADRGKLPGKKLPLEVLKEMEANARKAGCTRGCLICLSHIKCTPKMKKFIPGRCHTYEGDKESAQGGIGEAIVDIPEIPGFKDLEPMEQFIAQVDLCVDCTTGCLKGLANVHCSDLLKKWLPQRCATFADKIQGEVDKIKGYGGD | 0.615 | 0.583 | 0.723
P84K E102K S103I E110P L124M V138D: Gaussia luciferase mutant (protein, SIGNAL (1)..(17), Gaussia luciferase mutant) MGVKVLFALICIAVAEAKPTENNEDFNIVAVASNFATTDLDADRGKLPGKKLPLEVLKEMEANARKAGCTRGCLICLSHIKCTKKMKKFIPGRCHTYEGDKKIAQGGIGPAIVDIPEIPGFKDMEPMEQFIAQVDLCDDCTTGCLKGLANVQCSDLLKKWLPQRCATFASKIQGQVDKIKGAGGD | 0.036 | 3.010 | 0.536
E102K S103T A104G E110G V138D: Gaussia luciferase mutant (protein, SIGNAL (1)..(17), Gaussia luciferase mutant) MGVKVLFALICIAVAEAKPTENNEDFNIVAVASNFATTDLDADRGKLPGKKLPLEVLKEMEANARKAGCTRGCLICLSHIKCTPKMKKFIPGRCHTYEGDKKTGQGGIGGAIVDIPEIPGFKDLEPMEQFIAQVDLCDDCTTGCLKGLANVQCSDLLKKWLPQRCATFASKIQGQVDKIKGAGGD | 0.106 | 4.919 | 0.065
Q152H Q163D S170N G174S Q175E D177S A182Y: Gaussia luciferase mutant (protein, SIGNAL (1)..(17), Gaussia luciferase mutant) MGVKVLFALICIAVAEAKPTENNEDFNIVAVASNFATTDLDADRGKLPGKKLPLEVLKEMEANARKAGCTRGCLICLSHIKCTPKMKKFIPGRCHTYEGDKESAQGGIGEAIVDIPEIPGFKDLEPMEQFIAQVDLCVDCTTGCLKGLANVHCSDLLKKWLPDRCATFANKIQSEVSKIKGYGGD | 1.007 | 0.404 | 0.347
Q152H Q163T T167G S170N Q175E A182L G183A: Gaussia luciferase mutant (protein, SIGNAL (1)..(17), Gaussia luciferase mutant) MGVKVLFALICIAVAEAKPTENNEDFNIVAVASNFATTDLDADRGKLPGKKLPLEVLKEMEANARKAGCTRGCLICLSHIKCTPKMKKFIPGRCHTYEGDKESAQGGIGEAIVDIPEIPGFKDLEPMEQFIAQVDLCVDCTTGCLKGLANVHCSDLLKKWLPTRCAGFANKIQGEVDKIKGLAGD | 0.177 | 0.172 | 0.087
Q152H Q163D T167S S170N G174K A182L G183N: Gaussia luciferase mutant (protein, SIGNAL (1)..(17), Gaussia luciferase mutant) MGVKVLFALICIAVAEAKPTENNEDFNIVAVASNFATTDLDADRGKLPGKKLPLEVLKEMEANARKAGCTRGCLICLSHIKCTPKMKKFIPGRCHTYEGDKESAQGGIGEAIVDIPEIPGFKDLEPMEQFIAQVDLCVDCTTGCLKGLANVHCSDLLKKWLPDRCASFANKIQKQVDKIKGLNGD | 0.144 | 0.234 | 0.159
Q152H Q163D T167S S170D G174K Q175E K178S A182Y G183N: Gaussia luciferase mutant (protein, SIGNAL (1)..(17), Gaussia luciferase mutant) MGVKVLFALICIAVAEAKPTENNEDFNIVAVASNFATTDLDADRGKLPGKKLPLEVLKEMEANARKAGCTRGCLICLSHIKCTPKMKKFIPGRCHTYEGDKESAQGGIGEAIVDIPEIPGFKDLEPMEQFIAQVDLCVDCTTGCLKGLANVHCSDLLKKWLPDRCASFADKIQKEVDSIKGYNGD | 0.383 | 0.509 | 0.068
Q152H Q163D T167G S170V G174K Q175E K178N: Gaussia luciferase mutant (protein, SIGNAL (1)..(17), Gaussia luciferase mutant) MGVKVLFALICIAVAEAKPTENNEDFNIVAVASNFATTDLDADRGKLPGKKLPLEVLKEMEANARKAGCTRGCLICLSHIKCTPKMKKFIPGRCHTYEGDKESAQGGIGEAIVDIPEIPGFKDLEPMEQFIAQVDLCVDCTTGCLKGLANVHCSDLLKKWLPDRCAGFAVKIQKEVDNIKGAGGD | 1.749 | 0.215 | 0.862
Q152H Q163T T167G S170D G174N A182M G183A: Gaussia luciferase mutant (protein, SIGNAL (1)..(17), Gaussia luciferase mutant) MGVKVLFALICIAVAEAKPTENNEDFNIVAVASNFATTDLDADRGKLPGKKLPLEVLKEMEANARKAGCTRGCLICLSHIKCTPKMKKFIPGRCHTYEGDKESAQGGIGEAIVDIPEIPGFKDLEPMEQFIAQVDLCVDCTTGCLKGLANVHCSDLLKKWLPTRCAGFADKIQNQVDKIKGMAGD | 0.080 | 0.478 | 0.001
